From patent US20090136507A1 (published 2009)

Key:
Experiment in all cases: yeast two-hybrid screens, LRP5 cytoplasmic domain bait against brain, HeLa and TE85 prey cDNA libraries
alpha-actinin (ACTN1) = target: T1, alpha-actinin (ACTN1) (Homo sapiens (Human), UniProt P12814 1-892, limits assumed)
T1 construct: Yeast two-hybrid prey; also called α-actinin
From the text: (§1) In order to identify cytoplasmic Zmax1 (LRP5) signaling pathways, the cytoplasmic domain of Zmax1 (LRP5) was subcloned into two bait vectors. The first vector was pDBleu, which was used to screen a brain, and Hela prey cDNA library cloned into the vector pPC86 (Clontech). The second bait vector used was pDBtrp, which was used to screen a cDNA prey library derived from the TE85 osteosarcoma cell line in vector pOP46. Another suitable vector which is widely available, is p86 (Gibco, Iest™ System). Standard techniques known to those skilled in the art were used as described in Fields and Song, 1989 Nature 340: 245-246; U.S. Pat. No. 5,283,173 by Fields and Song; Johnston, 1987 Microbiol. Rev. 51: 458-476; Keegan et al., 1986 Science 231: 699-704; Durfee et al., 1993 Genes Dev. 7: 555-569; Chien et al., 1991 Proc. Natl. Acad. Sci. USA 88: 9578-9582; Fields et al., 1994 Trends in Genetics 10: 286-292; and Gyuris et al., 1993 Cell 75: 791-803. The bait construct and prey cDNA libraries were transformed into yeast using standard procedures.
(§2) The frozen prey library was thawed, and the yeast cells reactivated by growing them in 150 ml YEPD medium with 2% glucose for 2 hrs at 30° C. A filter unit was sterilized with 70% ethanol and washed with sterile water to remove the ethanol. The cell densities of both bait and prey cultures were measured by determining the OD at 600 nm. An appropriate volume of yeast cells that corresponded to a cell number of 1 ml of OD 600=4 of each yeast strain, bait and prey (library) was placed in a 50 ml Falcon tube. The mixture was then filtered through the sterilized filter unit. The filter was then transferred onto a prewarmed YEPD agar plate with the cell side up, removing all air bubbles underneath the filter. Plates were then incubated at 30° C. for 6 hrs. One filter was transferred into a 50 ml Falcon tube, and 10 ml of SD with 2% Glucose was added; cells were resuspended by vortexing for 10 sec. […]

Axin (AXIN) = target: T2, Axin (AXIN) (Homo sapiens (Human), UniProt O15169 1-862, limits assumed)
T2 construct: Yeast two-hybrid prey
From the text: as §1, §2

Zyxin (ZYX) = target: T3, Zyxin (ZYX) (Homo sapiens (Human), UniProt Q15942 2-572, limits assumed)
T3 construct: Yeast two-hybrid prey
T3 sequence: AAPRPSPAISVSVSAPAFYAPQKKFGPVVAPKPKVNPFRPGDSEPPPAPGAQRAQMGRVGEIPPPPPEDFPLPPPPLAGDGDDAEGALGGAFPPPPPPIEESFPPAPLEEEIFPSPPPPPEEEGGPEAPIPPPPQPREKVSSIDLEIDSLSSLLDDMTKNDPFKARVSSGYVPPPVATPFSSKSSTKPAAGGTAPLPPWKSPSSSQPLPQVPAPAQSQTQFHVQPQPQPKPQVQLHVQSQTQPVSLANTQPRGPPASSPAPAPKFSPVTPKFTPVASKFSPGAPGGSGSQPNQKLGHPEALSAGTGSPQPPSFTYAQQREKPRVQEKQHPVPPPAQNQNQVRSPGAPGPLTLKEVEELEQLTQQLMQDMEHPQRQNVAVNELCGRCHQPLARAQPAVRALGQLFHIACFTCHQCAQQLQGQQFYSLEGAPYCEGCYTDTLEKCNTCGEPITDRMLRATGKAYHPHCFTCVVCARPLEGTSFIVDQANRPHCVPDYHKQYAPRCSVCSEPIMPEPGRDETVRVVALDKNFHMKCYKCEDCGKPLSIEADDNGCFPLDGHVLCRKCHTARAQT
From the text: as §1, §2

Measured: binding result

T1 sequence (P12814 whole entry): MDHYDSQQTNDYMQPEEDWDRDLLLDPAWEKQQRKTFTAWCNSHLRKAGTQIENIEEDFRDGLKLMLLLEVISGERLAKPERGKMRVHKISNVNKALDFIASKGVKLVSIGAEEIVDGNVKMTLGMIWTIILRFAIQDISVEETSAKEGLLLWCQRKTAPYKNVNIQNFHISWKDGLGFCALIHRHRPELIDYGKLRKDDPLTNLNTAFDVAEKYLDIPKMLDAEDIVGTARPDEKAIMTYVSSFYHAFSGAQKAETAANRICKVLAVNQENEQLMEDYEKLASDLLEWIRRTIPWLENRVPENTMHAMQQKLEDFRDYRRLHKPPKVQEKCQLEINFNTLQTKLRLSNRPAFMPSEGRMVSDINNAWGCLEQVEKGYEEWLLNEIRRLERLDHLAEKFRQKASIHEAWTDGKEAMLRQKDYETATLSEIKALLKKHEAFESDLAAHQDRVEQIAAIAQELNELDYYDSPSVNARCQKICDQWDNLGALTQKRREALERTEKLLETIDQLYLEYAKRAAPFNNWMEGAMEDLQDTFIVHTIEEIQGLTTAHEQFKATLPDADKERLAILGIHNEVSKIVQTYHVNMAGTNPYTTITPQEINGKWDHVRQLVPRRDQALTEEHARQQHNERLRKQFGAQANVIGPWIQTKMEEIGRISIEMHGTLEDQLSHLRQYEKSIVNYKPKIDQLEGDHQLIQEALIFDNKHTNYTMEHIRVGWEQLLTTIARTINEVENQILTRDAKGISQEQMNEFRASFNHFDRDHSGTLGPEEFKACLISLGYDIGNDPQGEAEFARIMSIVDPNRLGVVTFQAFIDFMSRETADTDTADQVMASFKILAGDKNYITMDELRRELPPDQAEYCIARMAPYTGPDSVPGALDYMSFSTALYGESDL
T2 sequence (O15169 other isoform, or with tags, fused parts or gaps limits assumed): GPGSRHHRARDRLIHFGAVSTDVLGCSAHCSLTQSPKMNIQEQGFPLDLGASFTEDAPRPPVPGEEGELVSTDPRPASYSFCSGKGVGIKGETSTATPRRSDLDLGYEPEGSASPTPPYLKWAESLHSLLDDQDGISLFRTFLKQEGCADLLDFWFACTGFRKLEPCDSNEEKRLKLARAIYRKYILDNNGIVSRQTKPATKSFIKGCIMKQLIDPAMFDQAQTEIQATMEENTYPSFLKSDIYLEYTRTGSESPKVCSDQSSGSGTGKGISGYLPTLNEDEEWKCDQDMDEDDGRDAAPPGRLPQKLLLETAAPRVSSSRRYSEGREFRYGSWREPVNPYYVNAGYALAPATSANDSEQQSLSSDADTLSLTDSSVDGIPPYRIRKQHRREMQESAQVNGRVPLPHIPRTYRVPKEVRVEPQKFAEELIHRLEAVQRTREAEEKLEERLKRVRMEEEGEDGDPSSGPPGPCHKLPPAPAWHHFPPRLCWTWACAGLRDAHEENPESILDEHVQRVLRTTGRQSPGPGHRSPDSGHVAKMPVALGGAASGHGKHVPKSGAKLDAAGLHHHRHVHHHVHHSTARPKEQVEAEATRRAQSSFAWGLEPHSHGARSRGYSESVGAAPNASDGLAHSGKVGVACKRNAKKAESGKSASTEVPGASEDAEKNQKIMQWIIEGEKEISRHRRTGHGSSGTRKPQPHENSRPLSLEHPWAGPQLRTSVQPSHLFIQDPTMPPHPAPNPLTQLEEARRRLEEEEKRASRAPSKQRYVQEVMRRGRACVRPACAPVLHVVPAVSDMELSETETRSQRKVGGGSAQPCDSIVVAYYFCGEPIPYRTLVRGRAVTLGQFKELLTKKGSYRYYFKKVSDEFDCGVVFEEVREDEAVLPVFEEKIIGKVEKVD

B1: Zmax1 (LRP5) cytoplasmic domain bait (entire cytoplasmic domain and a portion of the transmembrane domain) (receptor)
chain: RVVCQRYAGANGPFPHEYVSGTPHVPLNFIAPGGSQHGPFTGIACGKSMMSSVSLMGGRGGVPLYDRNHVTGASSSSSSSTKATLYPPILNPPPSPATDPSLYNMDMFYSSNIPATVRPYRPYIIRGMAPPTTPCSTDVCDSDYSASRWKASKYYLDLNSDSDPYPPPPTPHSQYLSAEDSCPPSPATERSYFHLFPPPPSPCTDSS
notes: Yeast two-hybrid bait; also called cytoplasmic domain of Zmax1 (LRP5); cytoplasmic domain of LRP5
binds: all assays above
